Test results as given in patent US20140056966A1, “CONJUGATE ANGIOSTATION OR ITS FRAGMENT, THE METHOD OF PRODUCING THE CONJUGATE AND USE THEREOF” (PROTGEN LTD., priority 2007, published 2014).
Read-outs that look alike come from different tables or passages of the source.

What was measured:
[1] = body weight of animals in the NCI-H226 xenograft model; conditions: 20 mg/kg; Day 11 and Day 25; ANOVA p<0.05
Description: (§1) Female Balb/c nu/nu mice aged 6-8 weeks of about 18-20 g weight (institute of laboratory animal sciences, CAMS) were used in this experiment. Mice were subcutaneously inoculated on the right side with NCI-H226 cells (human pancreatic cancer cell line, derived from ATCC, ATCC number CRL-5826). When the tumor volume reached about 80-125 mm^3, the animals were divide into 3 groups randomly (6 per group). […] The body weight and tumor volume of the animals were measured twice a week. Sacrifice the animals on day 28, collect the tumors and take photographs.

NCI-H226 NSCLC xenograft = NCI-H226 NSCLC xenograft model, tumor burden; type: in vivo, Balb/c nu/nu mice; conditions: for T/C ratio: PEG-K1-3 4.5 mg/kg i.v., Taxol 20 mg/kg i.v.; for tumor inhibition rate: tumor burden 21 days after treatment, vs control group, PEG-K1-3 4.5 mg/kg, Taxol 20 mg/kg
Description: as §1

[2] = system: bovine capillary endothelial cell (BCE); conditions: cited from earlier work; for inhibition of BCE proliferation: fragments of recombinant human plasminogen
[3] = system: HeLa (human cervical cancer); assay: proliferation of tumor cells (HeLa), MTT; type: cell-based; conditions: 48 hours; for concentration showing the highest anti-proliferation effect on tumor cells: among 0.4, 4, 40 and 150 μg/ml
Description: K1-3 used in this example is the K1-3 having the sequence of SEQ ID NO.2. Specifically, HeLa (ATCC#CCL-2, USA) were added into 96-well plates at 20,000 cells per well, then cultured in the DMEM medium (Hyclone) containing 10% serum to exponential phase. After starving for 12 hours, cells were treated with different concentrations of modified or unmodified K1-3 for measurement of cell proliferation. Experimental groups were as follows: negative control group (PBS), positive control groups (0.4, 4, 40, and 150 μg/ml K1-3), and treatment group (0.4, 4, 40, and 150 μg/ml K1-3 with PEG coupled to its N-terminus). After culturing for 48 hours at 37° C., the cells in the plates were treated with MTT for 4 h at 37° C. Then DMSO was added, and the absorption was measured at 570 nm by microplate spectrophotometer.

B16 melanoma = assay: late-stage B16 melanoma mice tumor model; type: in vivo, C57B/L mice; conditions: subcutaneous, tumor weight day 11
Description: K1-3 used in this example is K1-3 having the sequence of SEQ ID NO.2. Experiments were performed to observe the in vivo inhibitory activity of K1-3 with PEG coupled to its N-terminus on late-stage B16 tumor. C57B/L mice of about 20 g were used in the experiment (Beijing Vital River Laboratory Animal Co. Ltd.). Mice were inoculated at back with B16 cells (ATCC#CRL-6475, USA), 1×10^6 cells per mouse. The mice were then randomly grouped after the tumor volume reaches 1 cm^3, 8 mice per group, including the negative control group (sodium acetate), the positive control group (K1-3, 4.5 mg/kg body weight, administered daily), three treatment groups (K1-3 with PEG coupled to its N-terminus, 1.5 mg/kg body weight, administered daily, or 4.5 mg/kg body weight, administered daily, every 3 days, every 6 days, or every 9 days, respectively). Administration was performed by subcutaneous injection and lasted for 10 days. The mice were sacrificed on day 11, the weight of tumor was measured, and the efficacy was evaluated by tumor inhibition rate.

[4] = system: human umbilical vein endothelial cell (HUVEC); assay: trans-well migration of HUVEC; type: cell-based; conditions: 8 hours
Description: The K1-3 used in this example has the sequence of SEQ ID NO.2. HUVECs (Protgen, Beijing) were cultured in the M199 medium (Hyclone) containing 20% fetal bovine serum (Hyclone) to exponential phase. After starved for 12 hours, cells were added into trans-well inserts (Millipore, USA) at the concentration of 10,000 cells per well for measurement of cell migration. Mediums for migration assay included M199 medium with 5% serum. For the treatment groups, K1-3 with or without modification were added to the cells at 0.004, 0.04, 0.4 and 4 μg/ml. After culturing for 8 hours at 37° C., the cells in the trans-well inserts were fixed with 1% glutaraldehyde (Beijing chemical plant, China). […] The migrated cell number was counted under microscope (Olympus). Cells in three different fields in one plate treatment were counted and then the inhibition rate was calculated. At the concentration of 0.04-4 μg/ml, the inhibitory effect of cell migration improves with the increase of protein concentration.

[5] = system: human umbilical vein endothelial cell (HUVEC); type: cell-based; conditions: 16 hours
Description: The K1-3 used in this example has the sequence of SEQ ID NO.2. 2×10^5/ml HUVEC were inoculated in 12-well plates (Corning) and cultured in the M199 medium (Hyclone) containing 20% fetal bovine serum (Hyclone) to exponential phase. After starved for 12 hours, crossed wounds were created in each well. Suspending cells were washed away. Experimental groups were as follows: negative control (PBS), positive control (K1-3 at the concentration of 0.04, 0.4 and 4 μg/ml) and treatment group (K1-3 with PEG at the concentration of 0.04, 0.4 and 4 μg/ml). After culturing for 16 hours at 37° C., the amounts of migrated cells were detected. At the concentration of 0.04-4 μg/ml, the inhibitory effect of cell migration was improved with the increase of protein concentration.

[6] = system: H22 hepatocellular carcinoma; assay: early-stage H22 hepatocellular carcinoma mice tumor model; type: in vivo, Balb/c mice; conditions: subcutaneous, 3 weeks, tumor weight day 22
Description: K1-3 used in this example is K1-3 having the sequence of SEQ ID NO.2. Experiments were performed to observe the in vive inhibitory activity of K1-3 with PEG coupled to its N-terminus on early-stage H22 tumor. Balb/c mice of about 20 g were used in the experiment (Beijing Vital River Laboratory Animal Co. Ltd.). Mice were inoculated at back with H22 cells, 1×10^6 cells per mouse. The mice were then randomly grouped after the tumor volume reaches 1 cm^3, 8 mice per group, including the negative control group (sodium acetate), the positive control group (K1-3, 4.5 mg/kg body weight, administered daily), three treatment groups (K1-3 with PEG coupled to its N-terminus, 1.5 mg/kg body weight, administered daily, or 4.5 mg/kg body weight, administered daily, twice per week, or weekly, respectively). The administration was performed by subcutaneous injection and lasted for 3 weeks. The mice were sacrificed on day 22, the weight of tumor was measured, and the efficacy was evaluated by tumor inhibition rate. […] Since the in vivo half life of K1-3 with PEG coupled to its N-terminus are longer than that of unmodified K1-3 of the same dosage, the biological activity K1-3 with PEG coupled to its N-terminus is higher than that of the unmodified K1-3 of the same concentration when administration intervals are extended.

[7] = in vivo half-life of K1-3 with or without PEG modification in Wistar rat
Description: The K1-3 used in this example has the sequence of SEQ ID NO.2. The efficacy of tK1-3 with PEG coupled to its N-terminus was evaluated by measuring the in vivo half-life of K1-3 with or without PEG modification in Wistar rat (Vitalriver Experimental Animal Center), respectively. Two healthy Wistar rat (about 200 g) were injected intraveniously with K1-3 and K1-3 modified with PEG, respectively, at a dose of 4.5 mg/kg body weight. Blood samples were taken from eye sockets of the rats at 0, 5, 10, 30 minutes, 1, 2, 4, 8, 16, 24, 36, 48, 72, 96, 120 and 144 hours. Plasma was then collected and the concentration of K1-3 with or without PEG modification was measured by sandwich ELISA, respectively.

[8] = 4.5 mg/kg body weight daily, 10 days
[9] = Wistar rat, injected intravenously, 4.5 mg/kg body weight, plasma, sandwich ELISA

Molecule	T/C ratio (NCI-H226 NSCLC xenograft; Day 4) [%]	T/C ratio (NCI-H226 NSCLC xenograft; Day 11) [%]	T/C ratio (NCI-H226 NSCLC xenograft; Day 18) [%]	T/C ratio (NCI-H226 NSCLC xenograft; Day 25) [%]	tumor inhibition rate (NCI-H226 NSCLC xenograft) [%]	inhibition of BCE proliferation [2]	concentration showing the highest anti-proliferation effect on tumor cells [3] [µg/mL]	tumor inhibition rate (B16 melanoma; [8]) [%]	inhibition rate on cells migration ([4]; 0.04 μg/ml) [%]	inhibition rate on cells migration ([4]; 0.4 μg/ml) [%]	inhibition rate on cells migration ([4]; 4 μg/ml) [%]	inhibition rate on cells migration (wound healing) ([5]; 0.04 μg/ml) [%]	inhibition rate on cells migration (wound healing) ([5]; 0.4 μg/ml) [%]	inhibition rate on cells migration (wound healing) ([5]; 4 μg/ml) [%]	tumor inhibition rate ([6]; 4.5 mg/kg body weight daily) [%]	half-life [7, 9] [h]	further results
CC(=O)O[C@H]1C(=O)[C@@]2(C)[C@H]([C@H](OC(=O)c3ccccc3)[C@]3(O)C[C@H](OC(=O)[C@H](O)[C@@H](NC(=O)c4ccccc4)c4ccccc4)C(C)=C1C3(C)C)[C@]1(OC(C)=O)CO[C@@H]1C[C@@H]2O [Taxol, reference compound]	69	39	28	18	84.43	–	–	–	–	–	–	–	–	–	–	–	average body weight compared with the control group [1]: significantly lower; tumor burden compared with the control group (NCI-H226 NSCLC xenograft; 20 mg/kg i.v., Day 11, Day 15, Day 18): significantly difference
K2: fragment of recombinant human plasminogen; angiostatin K2, SEQ ID NO:4 (protein, listed as Homo sapiens) CMHCSGENYDGKISKTMSGLECQAWDSQSPHAHGYIPSKFPNKNLKKNYCRNPDRELRPWCFTTDPNKRWELCDIPRC	–	–	–	–	–	effectively inhibit	–	–	–	–	–	–	–	–	–	–	–
K3: fragment of recombinant human plasminogen; angiostatin K3, SEQ ID NO:5 (protein, listed as Homo sapiens) CLKGTGENYRGNVAVTVSGHTCQHWSAQTPHTHNRTPENFPCKNLDENYCRNPDGKRAPWCHTTNSQVRWEYCKIPSC	–	–	–	–	–	effectively inhibit	–	–	–	–	–	–	–	–	–	–	–
K1-3: angiostatin fragment K1-3 (fragment of plasminogen), recombinant, sequence of SEQ ID NO.2, expressed in E. coli (protein, listed as Homo sapiens) MVYLSECKTGNGKNYRGTMSKTKNGITCQKWSSTSPHRPRFSPATHPSEGLEENYCRNPDNDPQGPWCYTTDPEKRYDYCDILECEEECMHCSGENYDGKISKTMSGLECQAWDSQSPHAHGYIPSKFPNKNLKKNYCRNPDRELRPWCFTTDPNKRWELCDIPRCTTPPPSSGPTYQCLKGTGENYRGNVAVTVSGHTCQHWSAQTPHTHNRTPENFPCKNLDENYCRNPDGKRAPWCHTTNSQVRWEYCKIPSCDSSP	–	–	–	–	–	effectively inhibit	40	45	43	68	76	0	20	25	51	12.2	inhibitory effect on cell proliferation compared with angiostatin K1-4 [2]: significantly stronger
PEG-K1-3: K1-3 having the sequence of SEQ ID NO:2 modified with 20 kDa PEG at the N-terminal α-amino group (conjugate, listed as Homo sapiens, 20 kDa PEG at N-terminus) MVYLSECKTGNGKNYRGTMSKTKNGITCQKWSSTSPHRPRFSPATHPSEGLEENYCRNPDNDPQGPWCYTTDPEKRYDYCDILECEEECMHCSGENYDGKISKTMSGLECQAWDSQSPHAHGYIPSKFPNKNLKKNYCRNPDRELRPWCFTTDPNKRWELCDIPRCTTPPPSSGPTYQCLKGTGENYRGNVAVTVSGHTCQHWSAQTPHTHNRTPENFPCKNLDENYCRNPDGKRAPWCHTTNSQVRWEYCKIPSCDSSP	73	63	62	66	17.18	–	40	60	58	65	69	35	40	105	60	81.5	inhibition of the tumor cell proliferation compared with unmodified K1-3 ([3]; 0.4-150 μg/ml): more potent than unmodified K1-3; tumor inhibition rate (B16 melanoma; 1.5 mg/kg body weight daily, 10 days): 28%; tumor inhibition rate (B16 melanoma; 4.5 mg/kg body weight every 3 days): 34%; tumor inhibition rate (B16 melanoma; 4.5 mg/kg body weight every 6 days): 25%; tumor inhibition rate (B16 melanoma; 4.5 mg/kg body weight every 9 days): 24%; tumor burden compared with the control group (NCI-H226 NSCLC xenograft; 4.5 mg/kg i.v., p<0.05): significantly decreased; tumor inhibition rate ([6]; 1.5 mg/kg body weight daily): 54%; tumor inhibition rate ([6]; 4.5 mg/kg body weight weekly): 50%; half-life ([7]; summary statement, refers to example 4): 81.5 h
K1: fragment of recombinant human plasminogen; angiostatin K1, SEQ ID NO:3 (protein, listed as Homo sapiens) CKTGNGKNYRGTMSKTKNGITCQKWSSTSPHRPRFSPATHPSEGLEENYCRNPDNDPQGPWCYTTDPEKRYDYCDILEC	–	–	–	–	–	effectively inhibit	–	–	–	–	–	–	–	–	–	–	–
